According to patent publication US20250276073A1 (Bicycle, published 2025):
Starred links: 1 amine or outer side, 2 acyl side, 3 side chain; linkers in the order of their positions; H or OH if unused. Positions of bridges follow the written chain, without caps; N, C: chain ends. Non-standard residues stand in square brackets, D forms with d. TATB = O=C(C[*:1])N1CN(C(=O)C[*:2])CN(C(=O)C[*:3])C1; Phe(4-CONH2) = NC(=O)c1ccc(C[C@H](N)C(=O)O)cc1; Phe(4-COOH) = N[C@@H](Cc1ccc(C(=O)O)cc1)C(=O)O; Gla = N[C@@H](CC(C(=O)O)C(=O)O)C(=O)O; Val(3-OH) = CC(C)(O)[C@H](N)C(=O)O; Hyp = O=C(O)[C@@H]1C[C@@H](O)CN1; Tle = CC(C)(C)[C@H](N)C(=O)O

B1: BCY23230 (peptide)
peptide: CPXDAYLGCXSYCDPW
modifications: CP[HyP]DAYLGC[tBuGly]SYCDPW: HyP at 3, tBuGly at 10; N-terminal acetyl; C-terminal CONH2; Cys 1, 9, 13 bonded to TATB scaffold
notes: Bicyclic peptide
B2: BCY23208 (peptide)
peptide: CPXDAYLGCXSYCEPX
modifications: CP[HyP]DAYLGC[tBuGly]SYCEP[DOPA]: HyP at 3, tBuGly at 10, DOPA at 16; N-terminal acetyl; C-terminal CONH2; Cys 1, 9, 13 bonded to TATB scaffold
notes: Bicyclic peptide
B3: BCY23209 (peptide)
peptide: CPXDAYLGCXSYCEPX
modifications: CP[HyP]DAYLGC[tBuGly]SYCEP[pCaPhe]: HyP at 3, tBuGly at 10, pCaPhe at 16; N-terminal acetyl; C-terminal CONH2; Cys 1, 9, 13 bonded to TATB scaffold
notes: Bicyclic peptide
B4: BCY23210 (peptide)
peptide: CPXDAYLGCXSYCEPX
modifications: CP[HyP]DAYLGC[tBuGly]SYCEP[pCoPhe]: HyP at 3, tBuGly at 10, pCoPhe at 16; N-terminal acetyl; C-terminal CONH2; Cys 1, 9, 13 bonded to TATB scaffold
notes: Bicyclic peptide
B5: BCY23211 (peptide)
peptide: CPXDAYLGCXSYCEPX
modifications: CP[HyP]DAYLGC[tBuGly]SYCEP[hTyr]: HyP at 3, tBuGly at 10, hTyr at 16; N-terminal acetyl; C-terminal CONH2; Cys 1, 9, 13 bonded to TATB scaffold
notes: Bicyclic peptide
B6: BCY23182 (peptide)
peptide: CXXDAYLGCXSYCEPW
modifications: C[Cis-HyP][HyP]DAYLGC[tBuGly]SYCEPW: Cis-HyP at 2, HyP at 3, tBuGly at 10; N-terminal acetyl; C-terminal CONH2; Cys 1, 9, 13 bonded to TATB scaffold
notes: Bicyclic peptide
B7: BCY23217 (peptide)
peptide: Ac-CP[Hyp][Gla]AYLGC[Tle]SYCEPW-NH2
modifications: linker 1-9-13 via TATB
SMILES: CC(=O)N[C@H]1CSCC(=O)N2CN3CN(C2)C(=O)CSC[C@@H](C(=O)N[C@@H](CCC(=O)O)C(=O)N2CCC[C@H]2C(=O)N[C@@H](Cc2c[nH]c4ccccc24)C(N)=O)NC(=O)[C@H](Cc2ccc(O)cc2)NC(=O)[C@H](CO)NC(=O)[C@H](C(C)(C)C)NC(=O)[C@H](CSCC3=O)NC(=O)CNC(=O)[C@H](CC(C)C)NC(=O)[C@H](Cc2ccc(O)cc2)NC(=O)[C@H](C)NC(=O)[C@H](CC(C(=O)O)C(=O)O)NC(=O)[C@@H]2C[C@@H](O)CN2C(=O)[C@@H]2CCCN2C1=O
notes: Bicyclic peptide
B8: BCY23224 (peptide)
peptide: CPXDAYLGCXXYCEPW
modifications: CP[HyP]DAYLGC[tBuGly][HSer]YCEPW: HyP at 3, tBuGly at 10, HSer at 11; N-terminal acetyl; C-terminal CONH2; Cys 1, 9, 13 bonded to TATB scaffold
notes: Bicyclic peptide
B9: BCY23231 (peptide)
peptide: CPXDAYLGCXSYCXPW
modifications: CP[HyP]DAYLGC[tBuGly]SYC[Gla]PW: HyP at 3, tBuGly at 10, Gla at 14; N-terminal acetyl; C-terminal CONH2; Cys 1, 9, 13 bonded to TATB scaffold
notes: Bicyclic peptide
B10: BCY23515 (peptide)
peptide: Ac-CP[Hyp]DAYLGC[Val(3-OH)]SYCEPW-NH2
modifications: linker 1-9-13 via TATB
SMILES: CC(=O)N[C@H]1CSCC(=O)N2CN3CN(C2)C(=O)CSC[C@@H](C(=O)N[C@@H](CCC(=O)O)C(=O)N2CCC[C@H]2C(=O)N[C@@H](Cc2c[nH]c4ccccc24)C(N)=O)NC(=O)[C@H](Cc2ccc(O)cc2)NC(=O)[C@H](CO)NC(=O)[C@H](C(C)(C)O)NC(=O)[C@H](CSCC3=O)NC(=O)CNC(=O)[C@H](CC(C)C)NC(=O)[C@H](Cc2ccc(O)cc2)NC(=O)[C@H](C)NC(=O)[C@H](CC(=O)O)NC(=O)[C@@H]2C[C@@H](O)CN2C(=O)[C@@H]2CCCN2C1=O
notes: Bicyclic peptide
B11: BCY23185 (peptide)
peptide: CPXDAXLGCXSYCEPW
modifications: CP[HyP]DA[DOPA]LGC[tBuGly]SYCEPW: HyP at 3, DOPA at 6, tBuGly at 10; N-terminal acetyl; C-terminal CONH2; Cys 1, 9, 13 bonded to TATB scaffold
notes: Bicyclic peptide
B12: BCY23186 (peptide)
peptide: Ac-CP[Hyp]DA[Phe(4-CONH2)]LGC[Tle]SYCEPW-NH2
modifications: linker 1-9-13 via TATB
SMILES: CC(=O)N[C@H]1CSCC(=O)N2CN3CN(C2)C(=O)CSC[C@@H](C(=O)N[C@@H](CCC(=O)O)C(=O)N2CCC[C@H]2C(=O)N[C@@H](Cc2c[nH]c4ccccc24)C(N)=O)NC(=O)[C@H](Cc2ccc(O)cc2)NC(=O)[C@H](CO)NC(=O)[C@H](C(C)(C)C)NC(=O)[C@H](CSCC3=O)NC(=O)CNC(=O)[C@H](CC(C)C)NC(=O)[C@H](Cc2ccc(C(N)=O)cc2)NC(=O)[C@H](C)NC(=O)[C@H](CC(=O)O)NC(=O)[C@@H]2C[C@@H](O)CN2C(=O)[C@@H]2CCCN2C1=O
notes: Bicyclic peptide
B13: BCY23187 (peptide)
peptide: Ac-CP[Hyp]DA[Phe(4-COOH)]LGC[Tle]SYCEPW-NH2
modifications: linker 1-9-13 via TATB
SMILES: CC(=O)N[C@H]1CSCC(=O)N2CN3CN(C2)C(=O)CSC[C@@H](C(=O)N[C@@H](CCC(=O)O)C(=O)N2CCC[C@H]2C(=O)N[C@@H](Cc2c[nH]c4ccccc24)C(N)=O)NC(=O)[C@H](Cc2ccc(O)cc2)NC(=O)[C@H](CO)NC(=O)[C@H](C(C)(C)C)NC(=O)[C@H](CSCC3=O)NC(=O)CNC(=O)[C@H](CC(C)C)NC(=O)[C@H](Cc2ccc(C(=O)O)cc2)NC(=O)[C@H](C)NC(=O)[C@H](CC(=O)O)NC(=O)[C@@H]2C[C@@H](O)CN2C(=O)[C@@H]2CCCN2C1=O
notes: Bicyclic peptide
B14: BCY23188 (peptide)
peptide: CPXDAXLGCXSYCEPW
modifications: CP[HyP]DA[hTyr]LGC[tBuGly]SYCEPW: HyP at 3, hTyr at 6, tBuGly at 10; N-terminal acetyl; C-terminal CONH2; Cys 1, 9, 13 bonded to TATB scaffold
notes: Bicyclic peptide
B15: BCY23200 (peptide)
peptide: CPXDAYLGCXSXCEPW
modifications: CP[HyP]DAYLGC[tBuGly]S[DOPA]CEPW: HyP at 3, tBuGly at 10, DOPA at 12; N-terminal acetyl; C-terminal CONH2; Cys 1, 9, 13 bonded to TATB scaffold
notes: Bicyclic peptide

Molecular target: T1, Recombinant human His-tagged TfR1 (a.a. 89-760) (ACRO Biosystems, CD1-H5243) (human, UniProt P02786 89-760)
T1 construct: range 89-760; Bought protein; Captured and amine-coupled on an NTA chip; also called human TfR1; transferrin receptor 1; not shown: His tag (printed 'Hiss-tagged')
Test: SPR (Biacore), TfR1 captured/coupled on NTA chip, peptide as analyte

T1 sequence (P02786 89-760 limits assumed): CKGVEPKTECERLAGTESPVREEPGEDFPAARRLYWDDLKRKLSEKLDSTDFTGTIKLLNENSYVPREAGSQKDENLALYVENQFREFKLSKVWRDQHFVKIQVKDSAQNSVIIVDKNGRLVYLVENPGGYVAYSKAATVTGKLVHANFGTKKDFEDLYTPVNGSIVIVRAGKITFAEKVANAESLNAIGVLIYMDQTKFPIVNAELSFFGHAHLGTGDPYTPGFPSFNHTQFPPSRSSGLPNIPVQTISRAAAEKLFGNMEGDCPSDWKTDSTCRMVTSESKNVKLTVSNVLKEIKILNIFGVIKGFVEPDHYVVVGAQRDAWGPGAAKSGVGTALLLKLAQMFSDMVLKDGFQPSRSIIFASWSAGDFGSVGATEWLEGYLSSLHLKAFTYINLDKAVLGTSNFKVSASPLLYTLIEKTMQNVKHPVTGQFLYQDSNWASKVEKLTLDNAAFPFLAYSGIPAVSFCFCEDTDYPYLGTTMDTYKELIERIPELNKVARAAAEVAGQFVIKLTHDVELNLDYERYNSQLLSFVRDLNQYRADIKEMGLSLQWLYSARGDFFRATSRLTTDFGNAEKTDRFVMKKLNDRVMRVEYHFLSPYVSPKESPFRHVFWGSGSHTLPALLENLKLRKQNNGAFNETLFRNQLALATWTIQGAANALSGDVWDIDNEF

Binder	Kd
B1	15 nM
B2	6 nM
B3	5.6 nM
B4	8.6 nM
B5	7.7 nM
B6	22 nM
B7	117 nM
B8	1140 nM
B9	25 nM
B10	85 nM
B11	12 nM
B12	27 nM
B13	38 nM
B14	109 nM
B15	9.5 nM
